Reference: US20250313605A1

Biological target: human GIP receptor (human) (UniProt P48546)
Experiment: cell-based or functional assay

Sequence of human GIP receptor (human) (P48546 22-466): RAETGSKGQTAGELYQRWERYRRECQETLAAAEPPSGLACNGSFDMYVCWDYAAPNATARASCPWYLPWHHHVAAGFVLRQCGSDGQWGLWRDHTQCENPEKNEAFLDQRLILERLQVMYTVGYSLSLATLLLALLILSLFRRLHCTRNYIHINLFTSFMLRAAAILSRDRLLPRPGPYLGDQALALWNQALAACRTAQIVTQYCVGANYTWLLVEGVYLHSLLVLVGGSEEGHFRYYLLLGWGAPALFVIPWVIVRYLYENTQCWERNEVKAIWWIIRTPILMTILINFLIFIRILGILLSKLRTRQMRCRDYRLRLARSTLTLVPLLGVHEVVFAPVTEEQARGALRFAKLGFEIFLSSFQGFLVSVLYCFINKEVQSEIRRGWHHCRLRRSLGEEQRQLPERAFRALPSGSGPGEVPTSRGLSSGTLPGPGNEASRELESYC

human GIP (1-42)NH2 (from UniProt P09681 52-93) (ligand)
cAMP EC50 (0.1% casein): 0.154 nM | cAMP EC50 (FBS and BSA present): 0.133 nM
